Source: PMC9482650, “Quantitative fragmentomics allow affinity mapping of interactomes” (Nature Communications, 2022)

Tests used:
Experiment in all cases: holdup assay
Design in all cases: key: below the threshold = too weak to quantify, mostly under pKd 3.1 to 4
[1] = target: T1, CARD11, Q9BXL7
T1 sequence (Q9BXL7 662-765, limits assumed, looked up): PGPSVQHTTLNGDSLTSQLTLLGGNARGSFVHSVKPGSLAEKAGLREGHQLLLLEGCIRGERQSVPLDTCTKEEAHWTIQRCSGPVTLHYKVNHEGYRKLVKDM

[2] = target: CASK, O14936
[3] = target: T2, DFNB31_1, Q9P202
T2 sequence (Q9P202 135-233, limits assumed, looked up): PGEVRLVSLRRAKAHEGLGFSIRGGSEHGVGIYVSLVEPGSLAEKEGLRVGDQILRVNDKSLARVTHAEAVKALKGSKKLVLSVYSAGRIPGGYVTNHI

[4] = target: T3, DFNB31_3, Q9P202
T3 sequence (Q9P202 811-907, limits assumed, looked up): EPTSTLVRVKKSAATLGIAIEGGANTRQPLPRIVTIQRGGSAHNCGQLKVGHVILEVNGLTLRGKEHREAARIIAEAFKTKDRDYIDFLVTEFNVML

[5] = target: DLG1_1, Q12959
[6] = target: DLG1_2, Q12959
[7] = target: T4, DLG3_3, Q92796
T4 sequence (Q92796 374-475, limits assumed, looked up): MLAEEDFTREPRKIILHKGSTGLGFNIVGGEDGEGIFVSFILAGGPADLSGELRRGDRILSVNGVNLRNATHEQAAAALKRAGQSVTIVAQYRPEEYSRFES

[8] = target: DLG4_3, P78352
[9] = target: T5, DVL3, Q92997
T5 sequence (Q92997 244-331, limits assumed, looked up): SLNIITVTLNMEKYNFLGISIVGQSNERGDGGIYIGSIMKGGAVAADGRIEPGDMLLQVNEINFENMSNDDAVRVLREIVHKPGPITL

[10] = target: FRMPD3, Q5JV73
[11] = target: GRID2IP_2, A4D2P6
[12] = target: T6, GRIP1_3, Q9Y3R0
T6 sequence (Q9Y3R0 247-346, limits assumed, looked up): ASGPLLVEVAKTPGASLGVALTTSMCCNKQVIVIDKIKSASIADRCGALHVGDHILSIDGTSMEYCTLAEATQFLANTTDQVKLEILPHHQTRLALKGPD

[13] = target: T7, GRIP1_7, Q9Y3R0
T7 sequence (Q9Y3R0 999-1096, limits assumed, looked up): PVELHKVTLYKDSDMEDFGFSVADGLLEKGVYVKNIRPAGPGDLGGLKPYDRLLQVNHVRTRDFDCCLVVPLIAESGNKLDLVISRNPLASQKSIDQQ

[14] = target: Inadl_10, Q8NI35
[15] = target: Inadl_6, Q8NI35
[16] = target: T8, LNX2_3, Q8N448
T8 sequence (Q8N448 463-564, limits assumed, looked up): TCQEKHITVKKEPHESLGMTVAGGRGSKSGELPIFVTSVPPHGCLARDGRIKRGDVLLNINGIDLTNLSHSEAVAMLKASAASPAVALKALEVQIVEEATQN

[17] = target: MAGI1_2, Q96QZ7
[18] = target: MAGI2_3, Q86UL8
[19] = target: MAGI2_5, Q86UL8
[20] = target: MAST1, Q9Y2H9
[21] = target: NHERF2_2, Q15599
[22] = target: T9, PCLO, Q9Y6V0
T9 sequence (Q9Y6V0 4491-4600, limits assumed, looked up): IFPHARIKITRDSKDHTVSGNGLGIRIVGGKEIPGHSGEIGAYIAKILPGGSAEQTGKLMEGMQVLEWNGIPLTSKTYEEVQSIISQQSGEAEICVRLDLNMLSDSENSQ

[23] = target: PTPN3, P26045
[24] = target: T10, RHPN1, Q8TCX5
T10 sequence (Q8TCX5 508-602, limits assumed, looked up): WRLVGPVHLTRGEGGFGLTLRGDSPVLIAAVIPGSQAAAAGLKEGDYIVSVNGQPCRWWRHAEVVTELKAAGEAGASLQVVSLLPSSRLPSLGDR

[25] = target: SCRIB_3, Q14160
[26] = target: T11, TIAM2, Q8IVF5
T11 sequence (Q8IVF5 885-986, limits assumed, looked up): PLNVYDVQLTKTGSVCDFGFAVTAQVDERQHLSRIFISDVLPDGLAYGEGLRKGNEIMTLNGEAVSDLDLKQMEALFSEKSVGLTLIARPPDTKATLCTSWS

[27] = target: TJP2_1, Q9UDY2
[28] = plain residues with an end cap or a label only (N-terminal biotin on a linker: ahx)
[29] = plain residues with an end cap or a label only (N-terminal biotin on a linker: ttds)

Sequence of NHERF2_2, Q15599 (Q15599 142-238): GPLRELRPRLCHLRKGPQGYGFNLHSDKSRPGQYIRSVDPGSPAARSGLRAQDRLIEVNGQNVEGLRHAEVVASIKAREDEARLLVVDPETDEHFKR
Sequence of MAST1, Q9Y2H9 (Q9Y2H9 962-1065): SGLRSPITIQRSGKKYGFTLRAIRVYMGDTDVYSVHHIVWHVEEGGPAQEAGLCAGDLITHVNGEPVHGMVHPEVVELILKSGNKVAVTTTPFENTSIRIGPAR
Sequence of DLG4_3, P78352 (P78352 306-403): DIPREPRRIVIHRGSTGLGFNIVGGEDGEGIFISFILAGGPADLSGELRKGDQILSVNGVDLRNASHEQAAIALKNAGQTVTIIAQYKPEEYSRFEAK
Sequence of GRID2IP_2, A4D2P6 (A4D2P6 272-370): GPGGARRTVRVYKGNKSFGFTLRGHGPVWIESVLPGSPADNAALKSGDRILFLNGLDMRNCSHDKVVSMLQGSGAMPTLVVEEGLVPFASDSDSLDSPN
Sequence of CASK, O14936 (O14936 487-570): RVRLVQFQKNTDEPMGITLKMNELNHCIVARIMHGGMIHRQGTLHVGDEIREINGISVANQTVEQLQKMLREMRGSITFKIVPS
Sequence of MAGI2_3, Q86UL8 (Q86UL8 600-682): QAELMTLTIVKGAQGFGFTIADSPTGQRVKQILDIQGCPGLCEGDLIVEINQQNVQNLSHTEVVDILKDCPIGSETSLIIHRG
Sequence of FRMPD3, Q5JV73 (Q5JV73 12-100): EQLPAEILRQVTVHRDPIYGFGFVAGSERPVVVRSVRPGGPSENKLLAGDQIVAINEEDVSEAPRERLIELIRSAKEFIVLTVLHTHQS
Sequence of MAGI2_5, Q86UL8 (Q86UL8 915-1017): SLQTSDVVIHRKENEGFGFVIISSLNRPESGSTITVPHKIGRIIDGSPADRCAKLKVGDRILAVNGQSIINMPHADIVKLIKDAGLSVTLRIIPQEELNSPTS
Sequence of PTPN3, P26045 (P26045 505-587): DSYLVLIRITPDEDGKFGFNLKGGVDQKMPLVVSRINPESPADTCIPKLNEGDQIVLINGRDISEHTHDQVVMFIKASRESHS
Sequence of Inadl_10, Q8NI35 (Q8NI35 1673-1763): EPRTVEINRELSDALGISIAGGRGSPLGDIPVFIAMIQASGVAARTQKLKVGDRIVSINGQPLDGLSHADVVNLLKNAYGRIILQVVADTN
Sequence of SCRIB_3, Q14160 (Q14160 999-1103): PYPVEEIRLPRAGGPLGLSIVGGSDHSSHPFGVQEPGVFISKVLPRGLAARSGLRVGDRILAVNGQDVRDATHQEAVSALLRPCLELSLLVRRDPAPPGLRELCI
Sequence of Inadl_6, Q8NI35 (Q8NI35 1058-1167): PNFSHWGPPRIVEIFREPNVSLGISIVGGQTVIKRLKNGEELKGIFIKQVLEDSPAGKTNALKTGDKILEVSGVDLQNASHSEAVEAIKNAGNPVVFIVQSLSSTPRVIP
Sequence of TJP2_1, Q9UDY2 (Q9UDY2 24-128): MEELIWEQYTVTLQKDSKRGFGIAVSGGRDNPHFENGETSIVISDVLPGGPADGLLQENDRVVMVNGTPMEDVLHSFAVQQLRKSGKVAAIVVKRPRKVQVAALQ
Sequence of MAGI1_2, Q96QZ7 (Q96QZ7 456-580): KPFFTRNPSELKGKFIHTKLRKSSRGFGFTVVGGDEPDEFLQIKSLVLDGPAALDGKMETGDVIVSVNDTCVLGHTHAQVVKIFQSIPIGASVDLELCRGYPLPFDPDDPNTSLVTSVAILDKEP

B1: NHERF3, Q5T2W1 (peptide)
chain: SSSNSEDTEM
For B1, the pKd [1, 28] was “below the threshold”, the pKd [2, 28] was “below the threshold” and the pKd [3, 28] was “below the threshold”. For the same binder, the pKd [4, 28] was “below the threshold”, the pKd [5, 28] was “below the threshold” and the pKd [6, 28] was “below the threshold”. The pKd [7, 28] was “below the threshold”, the pKd [8, 28] was “below the threshold” and the pKd [9, 28] was “below the threshold”. The pKd [10, 28] was “below the threshold”, the pKd [11, 28] was “below the threshold” and the pKd [12, 28] was “below the threshold”. The pKd [13, 28] was “below the threshold”, the pKd [14, 28] was “below the threshold” and the pKd [15, 28] was “below the threshold”. For the same binder, the pKd [16, 28] was “below the threshold”, the pKd [17, 28] was “below the threshold” and the pKd [18, 28] was “below the threshold”. For the same binder, the pKd [19, 28] was “below the threshold”, the pKd [20, 28] was 3.94 and the pKd [21, 28] was 4.25. The pKd [22, 28] was “below the threshold”, the pKd [23, 28] was 3.64 and the pKd [24, 28] was 3.98. The pKd [25, 28] was “below the threshold”, the pKd [26, 28] was “below the threshold” and the pKd [27, 28] was “below the threshold”.

B2: DGKZ, Q13574 (peptide)
chain: IQREDQETAV
For B2, the pKd [1, 29] was “below the threshold”, the pKd [2, 29] was “below the threshold” and the pKd [3, 29] was 4.81. For the same binder, the pKd [4, 29] was “below the threshold”, the pKd [5, 29] was 4.73 and the pKd [6, 29] was 5.16. The pKd [7, 29] was 4.42, the pKd [8, 29] was 3.84 and the pKd [9, 29] was “below the threshold”. The pKd [10, 29] was “below the threshold”, the pKd [11, 29] was 3.98 and the pKd [12, 29] was “below the threshold”. The pKd [13, 29] was 3.74, the pKd [14, 29] was “below the threshold” and the pKd [15, 29] was 4.02. The pKd [16, 29] was “below the threshold”, the pKd [17, 29] was “below the threshold” and the pKd [18, 29] was 4.45. For the same binder, the pKd [19, 29] was 4.69, the pKd [20, 29] was 4.57 and the pKd [21, 29] was 4.01. For the same binder, the pKd [22, 29] was “below the threshold”, the pKd [23, 29] was 5.12 and the pKd [24, 29] was 4.35. For the same binder, the pKd [25, 29] was 5.05, the pKd [26, 29] was “below the threshold” and the pKd [27, 29] was “below the threshold”.

B3: ATP2B1, P20020 (peptide)
chain: SPLHSLETSL
B3 was tested, and the pKd [1, 29] was “below the threshold”, the pKd [2, 29] was “below the threshold” and the pKd [3, 29] was 4.22. The pKd [4, 29] was “below the threshold”, the pKd [5, 29] was 4.12 and the pKd [6, 29] was 4.67. For the same binder, the pKd [7, 29] was 3.97, the pKd [8, 29] was 4.01 and the pKd [9, 29] was “below the threshold”. The pKd [10, 29] was 3.59, the pKd [11, 29] was 4.17 and the pKd [12, 29] was “below the threshold”. The pKd [13, 29] was 3.58, the pKd [14, 29] was “below the threshold” and the pKd [15, 29] was 4.31. The pKd [16, 29] was “below the threshold”, the pKd [17, 29] was 3.78 and the pKd [18, 29] was 3.5. For the same binder, the pKd [19, 29] was 4.31, the pKd [20, 29] was 4.92 and the pKd [21, 29] was 4.87. The pKd [22, 29] was “below the threshold”, the pKd [23, 29] was 4.95 and the pKd [24, 29] was 4.75. The pKd [25, 29] was 5.54, the pKd [26, 29] was “below the threshold” and the pKd [27, 29] was 3.49.
